Experimental data: patent US20060035332

Experiments:
[1] = molecular target: human OT7T022 receptor (human); assay: competition, 125I-Tyr-hRFRP-3(8), pH 7.5, room temperature; conditions: modification not given
[2] = molecular target: human OT7T022 receptor (human); assay: competition; conditions: modification not given

Sequence of human OT7T022 receptor (human) (chain, as listed by the source): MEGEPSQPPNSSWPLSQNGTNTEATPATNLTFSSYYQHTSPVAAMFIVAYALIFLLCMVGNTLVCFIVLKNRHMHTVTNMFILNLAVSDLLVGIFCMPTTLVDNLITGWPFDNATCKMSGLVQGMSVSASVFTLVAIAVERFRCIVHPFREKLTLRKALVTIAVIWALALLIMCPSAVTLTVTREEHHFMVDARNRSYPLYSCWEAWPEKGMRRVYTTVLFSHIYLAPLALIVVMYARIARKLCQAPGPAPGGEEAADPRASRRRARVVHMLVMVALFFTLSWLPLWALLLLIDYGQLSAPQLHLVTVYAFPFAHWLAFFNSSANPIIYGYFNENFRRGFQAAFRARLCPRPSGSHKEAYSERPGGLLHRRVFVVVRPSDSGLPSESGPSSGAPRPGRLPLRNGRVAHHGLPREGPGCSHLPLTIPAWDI

IC50 [1] [nM] | IC50 [2] [nM] | Binder
1.1 | – | ATANLPLRSGRNMEVSLVRRVPNLPQRF [hRFRP-3(28)]
1.3 | – | SAGATANLPLRSGRNMEVSLVRRVPNLPQRF [hRFRP-3(31)]
– | 0.62 | PNLPQRF [hRFRP-3(7)]

More lines, now with the values behind:

Binder | IC50 [1] [nM] | IC50 [2] [nM]
NLPQRF [hRFRP-3(6)] | – | 2.6
LPQRF [hRFRP-3(5)] | 2.1 | –
